The values that follow come from US20180291096A1 (Janssen / Centocor, published 2018).

In assay [1] the target is T1, recombinant human IL-23 (hrIL-23), produced at Centocor (human, UniProt P29460 23-328).
T1 construct: p19-p40 heterodimer; also called rhIL-23; huIL-23
T1 sequence 1: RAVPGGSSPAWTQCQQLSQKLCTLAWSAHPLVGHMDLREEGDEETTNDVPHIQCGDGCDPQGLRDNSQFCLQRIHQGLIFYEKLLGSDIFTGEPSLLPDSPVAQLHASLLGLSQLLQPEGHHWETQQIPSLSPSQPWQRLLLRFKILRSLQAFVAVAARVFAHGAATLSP
T1 sequence 2: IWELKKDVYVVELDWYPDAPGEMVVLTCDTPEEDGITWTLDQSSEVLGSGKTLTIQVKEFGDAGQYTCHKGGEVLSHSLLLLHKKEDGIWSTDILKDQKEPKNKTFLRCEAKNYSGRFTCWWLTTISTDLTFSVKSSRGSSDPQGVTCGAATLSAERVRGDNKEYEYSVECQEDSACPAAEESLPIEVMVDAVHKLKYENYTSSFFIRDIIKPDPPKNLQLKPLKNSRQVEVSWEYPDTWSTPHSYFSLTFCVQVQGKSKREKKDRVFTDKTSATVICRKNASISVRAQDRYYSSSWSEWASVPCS
The assay is described as follows: hrIL-23/hIL-23R competition assay, soluble receptor as reference.

In assay [2] the target is T1, recombinant human IL-23 (hrIL-23), …. The experiment in a line: blocking ELISA (BRBA): biotinylated IL-23 with titrated soluble IL-23R-Fc, binding to plate-immobilized IL-23R-Fc. The procedure:
In this experiment, a human IL-23R-Fc fusion protein was immobilized on a plate. This fusion protein consists of the extracellular domain of human IL-23 receptor fused to a human Fc segment. Biotinylated hrIL-23 was added to the plate either alone or after preincubation with individual IL-23p19 mAbs. Soluble IL-23R (IL-23R-Fc) was used as a positive control. IL-23 binding was detected with HRP-conjugated streptavidin. […] There was no inhibition by B21M, a mAb with unrelated specificity. […] IL-23 binding was inhibited by the p40 neutralizing mAb CNTO 1275 (same as mAb 12A), as expected. […] CNTO 1275 again served as a positive control.

B1: human IL-23R-Fc fusion protein (Fc fusion, UniProt Q5VWK5 24-355, looked up, not shown: a dimerising Fc or GST)
chain: GITNINCSGHIWVEPATIFKMGMNISIYCQAAIKNCQPRKLHFYKNGIKERFQITRINKTTARLWYKNFLEPHASMYCTAECPKHFQETLICGKDISSGYPPDIPDEVTCVIYEYSGNMTCTWNAGKLTYIDTKYVVHVKSLETEEEQQYLTSSYINISTDSLQGGKKYLVWVQAANALGMEESKQLQIHLDDIVIPSAAVISRAETINATVPKTIIYWDSQTTIEKVSCEMRYKATTNQTWNVKEFDTNFTYVQQSEFYLEPNIKYVFQVRCQETGKRYWQPWSSLFFHKTPETVPQVTSKAFQHDTWNSGLTVASISTGHLTSDNRGDIG
notes: extracellular domain; also called hIL-23R; soluble IL-23R
Consider B1, for which, in assay [1], the half-maximal inhibitory concentration (IC50) – broadly, the concentration that inhibits the measured activity by half – was found to be 1.8 nM. Moreover, the “IC50 (read off the curve)” value in assay [2] was ~0.05 µg/mL.
